Assay [1] addresses GlyT1b L288C, N-terminal FLAG-tagged (human). Nature of the assay: cross-linking; oxidative cross-linking on intact HEK293 cells with copper phenanthroline (CuP, 1-100 μM) for 15 min at 22 °C in HEPES buffered saline, quenched with 10 mM N-ethylmaleimide; lysates in non-reducing sample buffer, anti-FLAG immunoblot; also with ZnCl2, NMDGCl, Na+, glycine, bitopertin or LY2365109 present, or 100 mM DTT on the lysates. For orientation: Immunoblotting shows a protein as a band on a membrane.

For assay [2] the target is unchanged.

The term stoichiometry N denotes the number of molecules, sites or subunits per partner or assembly. In assay [1], “GlyT1b L288C, N-terminal FLAG-tagged (natural protein)” yielded a maximally increased % dimer fraction (CuP 1 to 100 μM) of 55.9% and a stoichiometry N of 2. For the same substance, in assay [2], the [3H]glycine uptake after CuP treatment (1 to 100 μM), transport activity remaining at the highest CuP concentration, % of control without CuP was 54 % of control.

For the origin of these results see publication PMC9781295.
